Results published in patent publication US20250026849A1 (ARCELLX, published 2025).
Numbering of substitutions follows the chain as printed. Blank lines part the entries; values can stand above or below the binder they belong to.

Target: T1, CD123 (Homo sapiens (Human), UniProt P26951 19-305, limits assumed)
T1 construct: also called CD123-Signal
T1 sequence: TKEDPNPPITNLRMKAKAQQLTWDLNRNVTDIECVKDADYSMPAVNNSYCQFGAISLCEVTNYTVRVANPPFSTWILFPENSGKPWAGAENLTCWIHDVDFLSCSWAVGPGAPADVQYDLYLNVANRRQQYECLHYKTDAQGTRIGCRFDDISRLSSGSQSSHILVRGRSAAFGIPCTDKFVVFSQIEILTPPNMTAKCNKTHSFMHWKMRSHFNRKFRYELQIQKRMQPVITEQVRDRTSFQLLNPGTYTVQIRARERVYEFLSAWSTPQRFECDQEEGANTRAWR
Experiment: ELISA, format not described
Set-up: unit not given here

- ELISA_avg: 3.2
B1: D domain SEQ ID NO: 674 (designed binder)
chain: MGSWWEFYDRLTAIEARLWALGGSEAELADFEEGIADFEYDLQDYKGKGNPEVEALFWEAWAIQSELTAYRHN

- ELISA_avg: 4.2
B2: D domain SEQ ID NO: 673 (designed binder)
chain: MGSWAEFEDRLAAIERRLEALGGSEAELADFESSIAWFEPDLQYYKGKGNPEVEALMYEAEAIFSELYAYRHN

- ELISA_avg: 4.7
B3: D domain SEQ ID NO: 694 (designed binder)
chain: MGSWYEFFDRLDAIYDRLYALGGSEAELASFEAQIAEFEVELQSYKGKGNPEVEALEWEAWAIDEELYAYRHN

- ELISA_avg: 6.5
B4: D domain SEQ ID NO: 688 (designed binder)
chain: MGSWEEFDERLWAISDRLWALGGSEAELAYFEGEIAYFEQNLQTYKGKGNPEVEALQTEALAIDTELWAYRHN

- ELISA_avg: 3.9
B5: D domain SEQ ID NO: 705 (designed binder)
chain: MGSWDEFWDRLDAIEDRLFALGGSEAELADFERVIAWFENDLQEYKGKGNPEVEALDNEADAIRIELHAYRHN

- ELISA_avg: 3.3
B6: D domain SEQ ID NO: 701 (designed binder)
chain: MGSWYEFADRLDAIMDRLVALGGSEAELAYFEWEIAAFEEFLQMYKGKGNPEVEALDEEAEAIKDELMAYRHN

- ELISA_avg: 16.6
B7: D domain SEQ ID NO: 683 (designed binder)
chain: MGSWWEFTDRLEAIEDRLWALGGSEAELAHFEDSIAQFEQELQWYKGKGNPEVEALADEADAIESELHAYRHN

- ELISA_avg: 4
B8: D domain SEQ ID NO: 745 (designed binder)
chain: MGSWIEFEDRLYAIEDRLWALGGSEAELAAFEKEIAAFESELQAYKGKGNPEVEFLRYEAAEIRYWLQAYRHN

- ELISA_avg: 3.1
B9: D domain SEQ ID NO: 713 (designed binder)
chain: MGSWTEFDMRLDAIWDRLFALGGSEAELAAFEKEIAAFESELQAYKGKGNPEVEELREEAATIRGVLQAYRHN

- ELISA_avg: 4.3
B10: D domain SEQ ID NO: 714 (designed binder)
chain: B8 chain with I5E, E8H, Y12M, D16T, F55W, E62D, Y65D, W66Y

- ELISA_avg: 3.3
B11: D domain SEQ ID NO: 709 (designed binder)
chain: B9 chain with T5Y, M9D, D12E, F19G, E55W, E59T, T62D, G65A, V66E

- ELISA_avg: 9.2
B12: D domain SEQ ID NO: 712 (designed binder)
chain: B9 chain with M9R, E55W, T62D, G65D, V66Y

- ELISA_avg: 4.2
B13: D domain SEQ ID NO: 711 (designed binder)
chain: B9 chain with T5I, D8E, M9V, E55Y, E58D, T62D, G65Q, V66S

- ELISA_avg: 8.9
B14: D domain SEQ ID NO: 703 (designed binder)
chain: MGSWYEFDARLDAIEERLYALGGSEAELAAFEFEIAGFEEALQWYKGKGNPEVEALLKEAEAITDELYAYRHN

- ELISA_avg: 5.1
B15: D domain SEQ ID NO: 697 (designed binder)
chain: MGSWYEFESRLDAIVDRLWALGGSEAELAEFEYEIAKFEWELQDYKGKGNPEVEALNWEAGAIEFELYAYRHN

- ELISA_avg: 3.3
B16: D domain SEQ ID NO: 676 (designed binder)
chain: MGSWWEFSWRLEAIETRLDALGGSEAELAFFEMDIAWFEQDLQLYKGKGNPEVEALEEEAYAIYEELEAYRHN

- ELISA_avg: 13
B17: D domain SEQ ID NO: 678 (designed binder)
chain: MGSWFEFEERLNAISWRLHALGGSEAELAYFEEDIAWFEDDLQFYKGKGNPEVEALENEAYAIWEELDAYRHN

- ELISA_avg: 3
B18: D domain SEQ ID NO: 686 (designed binder)
chain: MGSWEEFYYRLHAIDNRLWALGGSEAELAYFEWHIADFELELQDYKGKGNPEVEALSEEATAIFEELWAYRHN

- ELISA_avg: 3.9
B19: D domain SEQ ID NO: 696 (designed binder)
chain: MGSWLEFEDRLVAIDHRLFALGGSEAELAEFEEEIALFESYLQDYKGKGNPEVEALNWEADAIHAELYAYRHN

- ELISA_avg: 6.9
B20: D domain SEQ ID NO: 685 (designed binder)
chain: MGSWVEFYNRLDAIENRLWALGGSEAELAFFEELIAQFEFALQDYKGKGNPEVEALEDEADAIWEELMAYRHN

- ELISA_avg: 7.7
B21: D domain SEQ ID NO: 693 (designed binder)
chain: MGSWHEFDDRLDAIMSRLDALGGSEAELATFEAEIATFEFVLQLYKGKGNPEVEALLAEAYAIDWELEAYRHN

- ELISA_avg: 7.5
B22: D domain SEQ ID NO: 682 (designed binder)
chain: MGSWWEFTDRLDAIFDRLWALGGSEAELAAFEESIAIFEQDLQYYKGKGNPEVEALEYEANAIQYELEAYRHN

- ELISA_avg: 4.3
B23: D domain SEQ ID NO: 698 (designed binder)
chain: MGSWYEFEDRLDAILYRLLALGGSEAELAWFERDIAFFESELQWYKGKGNPEVEALEWEAMAIDDELFAYRHN

- ELISA_avg: 6.6
B24: D domain SEQ ID NO: 695 (designed binder)
chain: MGSWFEFLYRLDAIEDRLWALGGSEAELAEFEQEIAKFESELQSYKGKGNPEVEALEWEAHAIDMELEAYRHN

- ELISA_avg: 6.5
B25: D domain SEQ ID NO: 691 (designed binder)
chain: MGSWVEFEYRLDAISDRLWALGGSEAELAFFENEIASFESDLQFYKGKGNPEVEALMFEAEAIDDELHAYRHN

- ELISA_avg: 3
B26: D domain SEQ ID NO: 702 (designed binder)
chain: MGSWNEFWERLDAIEWRLFALGGSEAELAFFELDIAWFEEELQWYKGKGNPEVEALIFEAHAITLELDAYRHN

- ELISA_avg: 5.7
B27: D domain SEQ ID NO: 689 (designed binder)
chain: MGSWEEFEQRLWAIDDRLWALGGSEAELAFFEYEIAEFEMDLQWYKGKGNPEVEALFYEAHAINEELWAYRHN

- ELISA_avg: 4.6
B28: D domain SEQ ID NO: 671 (designed binder)
chain: MGSWWEFEDRLWAIDRRLMALGGSEAELAVFEQMIAHFEQILQVYKGKGNPEVEALHFEAHAIGMELAAYRHN

- ELISA_avg: 3.7
B29: D domain SEQ ID NO: 679 (designed binder)
chain: MGSWFEFEERLEAIIYRLWALGGSEAELAMFEESIAWFESDLQQYKGKGNPEVEALEYEAMAISKELKAYRHN

- ELISA_avg: 3.8
B30: D domain SEQ ID NO: 675 (designed binder)
chain: MGSWYEFEDRLAAIEARLWALGGSEAELADFEEEIAYFEHGLQWYKGKGNPEVEALESEAMAIIDELHAYRHN

- ELISA_avg: 3.3
B31: D domain SEQ ID NO: 707 (designed binder)
chain: MGSWEEFTIRLGAIYWRLFALGGSEAELANFEWFIAEFEYELQPYKGKGNPEVEALVIEANAIDGELQAYRHN

- ELISA_avg: 5.6
B32: D domain SEQ ID NO: 706 (designed binder)
chain: MGSWDEFDDRLEAIVDRLFALGGSEAELAMFEFEIAQFEHQLQYYKGKGNPEVEALRDEADAIWIELDAYRHN

- ELISA_avg: 3.2
B33: D domain SEQ ID NO: 704 (designed binder)
chain: MGSWDEFSERLDAIWGRLEALGGSEAELATFEFHIAEFEHELQYYKGKGNPEVEALQGEAAAIINELYAYRHN

- ELISA_avg: 3.7
B34: D domain SEQ ID NO: 690 (designed binder)
chain: MGSWDEFHQRLAAIGDRLWALGGSEAELAYFEWEIATFEWDLQVYKGKGNPEVEALYFEATAIDEELMAYRHN

- ELISA_avg: 3.2
B35: D domain SEQ ID NO: 677 (designed binder)
chain: MGSWEEFFFRLEAIDDRLYALGGSEAELALFEEVIAYFEQDLQWYKGKGNPEVEALYVEAYAIQEELYAYRHN

- ELISA_avg: 3.1
B36: D domain SEQ ID NO: 672 (designed binder)
chain: MGSWWEFLDRLEAIEYRLQALGGSEAELAVFEWEIAMFEDHLQGYKGKGNPEVEALHSEAHAIISELSAYRHN

- ELISA_avg: 3.3
B37: D domain SEQ ID NO: 708 (designed binder)
chain: MGSWFEFEWRLDAIENRLNALGGSEAELAWFEYHIAAFEDSLQHYKGKGNPEVEALEWEAHAIQSELQAYRHN

- ELISA_avg: 4.6
B38: D domain SEQ ID NO: 699 (designed binder)
chain: MGSWGEFMDRLEAIDYRLWALGGSEAELAWFESDIAEFEQELQMYKGKGNPEVEALWDEAMAIRDELFAYRHN

- ELISA_avg: 3.8
B39: D domain SEQ ID NO: 681 (designed binder)
chain: MGSWDEFEERLQAIEYRLWALGGSEAELAWFEEVIAQFEYDLQKYKGKGNPEVEALSTEAQAIQDELWAYRHN

- ELISA_avg: 5.8
B40: D domain SEQ ID NO: 680 (designed binder)
chain: MGSWAEFDDRLEAIEYRLHALGGSEAELAWFEEGIAGFEHALQSYKGKGNPEVEALETEAGAINEELWAYRHN

- ELISA_avg: 4
B41: D domain SEQ ID NO: 700 (designed binder)
chain: MGSWEEFDDRLDAIEHRLWALGGSEAELADFEGSIAAFESWLQVYKGKGNPEVEALEAEAEAIADELWAYRHN

- ELISA_avg: 5.6
B42: D domain SEQ ID NO: 687 (designed binder)
chain: MGSWREFHDRLFAIDGRLWALGGSEAELANFEWDIADFEFELQDYKGKGNPEVEALSWEADAIMQELGAYRHN

- ELISA_avg: 4
B43: D domain SEQ ID NO: 692 (designed binder)
chain: MGSWDEFDTRLDAIFSRLYALGGSEAELAMFEGEIAEFEGSLQHYKGKGNPEVEALDFEAHAIDEELWAYRHN

- ELISA_avg: 4
B44: D domain SEQ ID NO: 684 (designed binder)
chain: MGSWVEFFWRLDAIEDRLWALGGSEAELANFEFEIADFEAWLQKYKGKGNPEVEALHSEADAIQLELRAYRHN
